The values that follow come from patent publication US20250332257A1 (published 2025).

First the molecules themselves.
B1: TCR013 (TCR, V domains shown)
Valpha: GQQVMQIPQYQHVQEGEDFTTYCNSSTTLSNIQWYKQRPGGHPVFLIQLVKSGEVKKQKRLTFQFGEAKKNSSLHITATQTTDVGTYFCAGPKITGGGNKLTFGTGTQLKVEL
Vbeta: DSGVTQTPKHLITATGQRVTLRCSPRSGDLSVYWYQQSLDQGLQFLIQYYNGEERAKGNILERFSAQQFPDLHSELNLSSLELGDSALYFCASSVGGGPNYGYTFGSGTRLTVV
B2: TCR028 (TCR, V domains shown)
Valpha: B1 Valpha with K93I, I94L
Vbeta: DSGVTQTPKHLITATGQRVTLRCSPRSGDLSVYWYQQSLDQGLQFLIQYYNGEERAKGNILERFSAQQFPDLHSELNLSSLELGDSALYFCASGLSGPNTGELFFGEGSRLTVL
B3: TCR090 (TCR, V domains shown)
Valpha: B1 Valpha with T81L, K93V, I94L
Vbeta: B2 Vbeta with K9R, H10Y, G94S, L95V, S96G
B4: TCR010 (TCR, V domains shown)
Valpha: AQSVTQLDSHVSVSEGTPVLLRCNYSSSYSPSLFWYVQHPNKGLQLLLKYTSAATLVKGINGFEAEFKKSETSFHLTKPSAHMSDAAEYFCVVSLSGGYNKLIFGAGTRLAVHP
Vbeta: DSGVTQTPKHLITATGQRVTLRCSPRSGDLSVYWYQQSLDQGLQFLIQYYNGEERAKGNILERFSAQQFPDLHSELNLSSLELGDSALYFCASSVTGSGYTFGSGTRLTVV

Numbering of substitutions follows the chain as printed.

The target of the assay is T1, HPV E6 peptide on HLA-A*11:01 (human).
T1 peptide: TTLEQQYNK
Briefly: multimer staining.
Consider B1, for which the binding result is reported as “recognises”. As for B2, the entry is “recognises”.

For B3, the binding result is on record as “recognises”. Take B4: the binding result was “recognises”.
